Reference: the Immune Epitope Database (IEDB)
Blank lines part the entries; values can stand above or below the sequence they belong to.

What was measured:
[1] = molecular target: HLA-B*40:01; experiment: IEDB peptide-MHC binding, purified MHC/competitive/fluorescence; filed as Kd, often an IC50 or EC50 that approximates it; ≥ and ≤ were set here for values at or beyond the usual limits of such assays
[2] = molecular target: HLA-B*15:01; experiment: IEDB peptide-MHC binding, purified MHC/direct/fluorescence; filed as Kd, often an IC50 or EC50 that approximates it; ≥ and ≤ were set here for values at or beyond the usual limits of such assays; details: source organism: Mycobacterium tuberculosis variant bovis
[3] = molecular target: HLA-B*35:01; experiment: IEDB peptide-MHC binding, purified MHC/competitive/fluorescence; filed as Kd, often an IC50 or EC50 that approximates it; ≥ and ≤ were set here for values at or beyond the usual limits of such assays
[4] = molecular target: HLA-B*51:01; experiment: as above
[5] = molecular target: HLA-B*08:01; experiment: as above; details: source organism: Shigella flexneri 5 str. 8401
[6] = molecular target: HLA-B*15:01; experiment: as above
[7] = molecular target: HLA-B*39:01; experiment: as above
[8] = molecular target: HLA-B*08:02; experiment: IEDB peptide-MHC binding, purified MHC/direct/fluorescence; filed as Kd, often an IC50 or EC50 that approximates it; ≥ and ≤ were set here for values at or beyond the usual limits of such assays; details: source organism: Listeria monocytogenes serotype 4b str. H7858
[9] = molecular target: HLA-B*08:01; experiment: as above; details: source organism: Listeria monocytogenes serotype 4b str. H7858
[10] = molecular target: HLA-B*08:03; experiment: as above; details: source organism: Listeria monocytogenes serotype 4b str. H7858
[11] = molecular target: HLA-A*29:02; experiment: IEDB peptide-MHC binding, purified MHC/competitive/fluorescence; filed as Kd, often an IC50 or EC50 that approximates it; ≥ and ≤ were set here for values at or beyond the usual limits of such assays; details: source organism: Homo sapiens
[12] = molecular target: HLA-A*02:03; experiment: as above; details: source organism: Homo sapiens
[13] = molecular target: HLA-B*46:01; experiment: as above
[14] = molecular target: HLA-A*03:01; experiment: as above; details: source organism: Homo sapiens
[15] = molecular target: HLA-A*02:16; experiment: as above; details: source organism: Homo sapiens
[16] = molecular target: HLA-A*01:01; experiment: as above
[17] = molecular target: HLA-A*26:01; experiment: as above
[18] = molecular target: HLA-A*69:01; experiment: as above
[19] = molecular target: HLA-A*02:11; experiment: as above; details: source organism: Homo sapiens
[20] = molecular target: HLA-B*15:17; experiment: as above
[21] = molecular target: HLA-A*02:19; experiment: as above; details: source organism: Homo sapiens
[22] = molecular target: HLA-A*68:02; experiment: as above; details: source organism: Homo sapiens
[23] = molecular target: HLA-A*02:01; experiment: as above
[24] = molecular target: HLA-A*24:03; experiment: as above; details: source organism: Homo sapiens
[25] = molecular target: HLA-A*02:12; experiment: as above; details: source organism: Homo sapiens
[26] = molecular target: HLA-B*27:03; experiment: as above
[27] = molecular target: HLA-A*29:02; experiment: IEDB peptide-MHC binding, purified MHC/direct/fluorescence; filed as Kd, often an IC50 or EC50 that approximates it; ≥ and ≤ were set here for values at or beyond the usual limits of such assays; details: source organism: Orthohantavirus tulaense
[28] = molecular target: HLA-A*02:03; experiment: as above; details: source organism: Orthohantavirus tulaense
[29] = molecular target: HLA-A*03:01; experiment: as above; details: source organism: Orthohantavirus tulaense
[30] = molecular target: HLA-A*02:16; experiment: as above; details: source organism: Orthohantavirus tulaense
[31] = molecular target: HLA-A*02:11; experiment: as above; details: source organism: Orthohantavirus tulaense
[32] = molecular target: HLA-A*23:01; experiment: as above; details: source organism: Orthohantavirus tulaense
[33] = molecular target: HLA-A*02:19; experiment: as above; details: source organism: Orthohantavirus tulaense
[34] = molecular target: HLA-A*68:02; experiment: as above; details: source organism: Orthohantavirus tulaense
[35] = molecular target: HLA-A*24:03; experiment: as above; details: source organism: Orthohantavirus tulaense
[36] = molecular target: HLA-A*02:12; experiment: as above; details: source organism: Orthohantavirus tulaense
[37] = molecular target: HLA-B*18:01; experiment: IEDB peptide-MHC binding, purified MHC/competitive/fluorescence; filed as Kd, often an IC50 or EC50 that approximates it; ≥ and ≤ were set here for values at or beyond the usual limits of such assays; details: source organism: Orthohantavirus tulaense
[38] = molecular target: HLA-B*57:01; experiment: as above; details: source organism: Orthohantavirus tulaense
[39] = source organism: Shigella flexneri 5 str. 8401
[40] = source organism: Escherichia coli
[41] = source organism: Orthohantavirus tulaense

Sequence: EEISSIISL
Kd ([1]; source organism: Bacillus anthracis str. A2012): 0.0023 µM

Sequence: ELNITSATY
Kd [2]: 0.459 µM | Kd ([3]; source organism: Mycobacterium tuberculosis variant bovis): 0.0182 µM

Sequence: LPRRLQLLF
Kd [4, 39]: 2.64 µM | Kd [3, 39]: 0.0029 µM | Kd [5]: 4 µM

Kd [1, 40]: 0.866 µM | Kd [6, 40]: ≥ 20 µM | Kd [7, 40]: 0.108 µM
Sequence: LQEEMAETL

Sequence: QATAQAAAY
Kd [2]: 6.05 µM | Kd ([3]; source organism: Mycobacterium tuberculosis C): 0.0145 µM

Sequence: QMKRRILSF
Kd [8]: 0.057 µM | Kd [9]: 0.009 µM | Kd [10]: 0.095 µM

Sequence: REWSGLNYL
Kd ([1]; source organism: Salmonella enterica subsp. enterica serovar Typhi): 0.0033 µM

Kd [11]: ≥ 20 µM | Kd [12]: ≥ 20 µM | Kd ([13]; source organism: Homo sapiens): ≥ 20 µM | Kd [14]: ≥ 20 µM | Kd [15]: ≥ 20 µM | Kd ([4]; source organism: Homo sapiens): ≥ 20 µM | Kd ([16]; source organism: Homo sapiens): 0.538 µM | Kd ([17]; source organism: Homo sapiens): ≥ 20 µM | Kd ([18]; source organism: Homo sapiens): ≥ 20 µM | Kd [19]: ≥ 20 µM | Kd ([6]; source organism: Homo sapiens): ≥ 20 µM | Kd ([20]; source organism: Homo sapiens): ≥ 20 µM | Kd [21]: ≥ 20 µM | Kd [22]: ≥ 20 µM | Kd ([23]; source organism: Homo sapiens): ≥ 20 µM | Kd [24]: ≥ 20 µM | Kd ([7]; source organism: Homo sapiens): ≥ 20 µM | Kd [25]: ≥ 20 µM | Kd ([26]; source organism: Homo sapiens): ≥ 20 µM
Sequence: SSDLRSWTF

Sequence: VVDALRNIY
Kd [27]: ≥ 20 µM | Kd [28]: ≥ 20 µM | Kd [29]: ≥ 20 µM | Kd [30]: ≥ 20 µM | Kd [31]: ≥ 20 µM | Kd [32]: ≥ 20 µM | Kd [33]: ≥ 20 µM | Kd [34]: ≥ 20 µM | Kd [35]: ≥ 20 µM | Kd [36]: ≥ 20 µM | Kd [13, 41]: ≥ 20 µM | Kd [4, 41]: ≥ 20 µM | Kd [16, 41]: 0.0063 µM | Kd [17, 41]: ≥ 20 µM | Kd [18, 41]: ≥ 20 µM | Kd [20, 41]: ≥ 20 µM | Kd [37]: ≥ 20 µM | Kd [23, 41]: ≥ 20 µM | Kd [7, 41]: ≥ 20 µM | Kd [38]: ≥ 20 µM | Kd [26, 41]: ≥ 20 µM
